Data: patent US20230094463A1 (TRUEBINDING, published 2023)

Key:
[1] = molecular target: T1, Human GAL3 protein (TrueBinding, QCB200349 / QCB200352; R&D Systems, 8259-GA) (human, UniProt P17931 2-250); assay: blocking ELISA (GAL3 coated; antibody + biotinylated ITGa3)
T1 construct: also called human galectin-3

[2] = molecular target: T1, Human GAL3 protein (TrueBinding, …); assay: blocking ELISA (GAL3 coated; antibody + biotinylated ITGaV)
[3] = molecular target: T2, Human Galectin-3 protein (Acro Biosystems, GA3-H5129) (human, UniProt P17931 2-250); assay: SPR (Biacore T200), antibody captured, Galectin-3 as analyte
T2 construct: Bought protein; also called Gal3-ECD-His; Gal3-His; not shown: linker-spaced 6-histidine tag

[4] = molecular target: T2, Human Galectin-3 protein (Acro …); assay: blocking ELISA (Gal3 coated; antibody 3 µg/mL + INSR)
[5] = molecular target: T1, Human GAL3 protein (TrueBinding, …); assay: blocking ELISA (GAL3 coated; antibody + biotinylated ITGb3)
[6] = molecular target: T2, Human Galectin-3 protein (Acro …); assay: ELISA, blocking of INSR binding to coated Gal3
[7] = molecular target: T2, Human Galectin-3 protein (Acro …); assay: ELISA, blocking of INSR binding to coated Gal3; remark: listed apart in the source

Binder	percent blockade of GAL3-ITGa3 interaction [1]	percent blockade of GAL3-ITGaV interaction [2]	Kd [3]	Gal3-INSR binding remaining, % of unblocked sample [4]	percent blockade of GAL3-ITGb3 interaction [5]	Gal3-INSR Blocking @ 3 µg/mL [6]	IC50 (read off the curve) [7]	reduction of Gal3-INSR binding (%) [4]
2D10.2B2 (antibody, V domains shown) VH: QVQLQQSGPELVKPGASVKISCKASGYTFTDYYINWVKQRPGQGLEWIGWIYPGSNDTKYNEKFKGKATLTVDTSSSTAYMQLGSLTSEDSAVYFCANYFGCSGWFFDVWGTGTTVTVSS VL: DIVMTQAAFSNPVTLGTSASISCRSSKSLLHSDGITYLYWYLQRPGQSPQLLIYRMSNLASGVPDRFSGSGSGTDFTLRISRVEAEDVGVYYCAQMIEFPLTFGAGTILELK	> 90%	> 90%	0.753 nM	< 5%	> 90%	100%	~0.5 µg/mL	
4A11.2B5 (antibody, V domains shown) VH: QVQLQQSGPELVKPGASVKISCKASGYSFTNYYIHWVKQRPGQGLEWIGWIYPGSGNTNYNEKFKGKATLTADTSSSTTNMQLSSLTSEDSAVYYCSTAPGGFDVWGSGTTVTVSS VL: DIVMTQAAFSNPVTLGTSASISCRSSKSLLHSDGITYLYWYLQRPGQSPQLLIYRMSNLASGVPDRFSGSGSGTDFTLRISRVEAEDVGVYYCAQMLEFPLTFGAGTKLELK			5.22 nM	< 5%		100%		
F847C.10B9 (antibody, V domains shown, also called 847.10B9) VH: QIQLVQSGPEVKKPGETVKISCKASGYIFTNYGMNWVKQAPGKGLKWMGWINTYTGEPTYTDDFKGRFAFSLETSASTAYLQINNLKNEDTATYFCAKFGNYVGAMDYWGQGTSVTVSS VL: DIRMTQSPSSLSASLGDTITITCHASQNINVWLSWYQQKPGNIPKLLIYKASNLHTGVPSRFSGSGSGTGFTLTISSLQPEDIATYYCQQGQSYPYTFGGGTKLELK	> 90%	> 90%			> 90%			
F847C.12F12 (antibody, V domains shown, anti-Gal3 antibody; also called 847.12F12; 84712F12) VH: QIQLVQSGPELKKPGETVKISCKASGYTFTNYGMNWVKQAPGKGLKWMGWINTYTGEPTYVDDFKGRFAFSLETSASTAYLRINNLKNEDTATYFCAKFGNYVGAMDYWGQGTSVTVSS VL: DIQVIQSPSSLSASLGDTITITCHASQNINVWLSWYQQKPGNIPKLLIYKASNLHTGVPSRFSGSGSGTGFTLTISSLQPEDIATYYCQQGQSYPYTFGGGTKLELK	> 90%	> 90%			> 90%			
F847C.26F5 (antibody, V domains shown, also called 847.26F5) VH: QIQLVQSGPEVKKPGETVKISCKASGYIFTNYGMNWVKQAPGKGLKWMGWINTYTGEPTYTDDFKGRFAFSLETSASTAYLQINNLKNEDTATYFCAKFGNYVGAMDYWGQGTSVTVSS VL: EIKMNQSPSSLSASLGDTITITCHASQNINVWLSWYQQKPGNIPKLLIYKASNLHTGVPSRFSGSGSGTGFTLTISSLQPEDIATYYCQQGQSYPYTFGGGTKLELK	> 90%	> 90%			> 90%			
3B11.2G2 (antibody, V domains shown) VH: QIQLVQSGPELKKPGETVKISCKTSGYKFKTYVMSWVKQAPGKALKWMGWINTYSGVPTYADDFKGRFAFSLETSASTAYLEIINLKNEDTATYFCARDGNYGDPMDYWGQGTSVTVSS VL: not shown			< 1 nM	< 5%		96%		
13A12.2E5 (antibody, V domains shown) VH: QIQLVQSGPELKKPGETVKISCKTSGYKFKTYVMSWVKQAPGKALKWMGWINTYSGVPTYADDFKGRFAFSLETSASTAYLEIINLKNEDTATYFCARDGNYGDPMDYWGQGTSVTVSS VL: DVVMTQTPLTLSVAIGQPASISCKSSQSLLYTNGKTYLNWLLQRPGQSPKRLIYLLSKLDSGVPDRFSASGSGTDFTLKISRVEAEDLGVYYCLQSTHFPLTFGAGTKLEMK	> 90%		8.2 nM	< 5%	> 90%	97%		
24D12.2H9 (antibody, V domains shown) VH: QVQLKQSGPGLVQPSQSLSITCTVSGFSLTSYGVHWVRQAPGKGLEWLGVIWSGGSTDYNAAFMSRLSISKDNSKSQVFFKMNSLQADDTAIYYCAKSPDGYDVAWFGYWGQGTLVTVSA VL: DIVMTQSHKFMSTSVGDRVSITCKASQDVRTAVAWYQQKPGQSPKLLIYWASTRHTGVPDRFTGSGSGTDFTLTLSNVQSEDLADYFCQQYSSYPWTFGGGTKLEIK			4.13 nM			22%		≤ 30%
F847C.11B1 (antibody, V domains shown, anti-Gal3 antibody; also called 847.11B1) VH: EVQLQQSGPELVKPGASVKISCKASGNTFTDHNMHWVKQSHGKSLEWIGYIYPYNGGTGYNQKFKSKATLTVDNSSSTVYMELRSLTSEDSAVYYCARGEYDYLAWFAYWGQGTLVTVSA VL: EIVLTQSPASLSVTTGEKVTIRCITSIDIDDDMNWYQQKPGEPPKLLISEGNTLRPGVPSRFSSSGYGTDFVFTIENTLSEDVADYYCLQSDNKPLTFGAGTKLELKR	< 35%	< 30%			< 10%			
4G2.2G6 (antibody, V domains shown) VH: QIQLVQSGPDLKKPGETVKISCKASGYTFTTYVMSWVKQAPGKDLKWMGWINTHSGVPTYADDFKGRFDFSLETSANTAFLQINNLKNEDTATYFCTRDGNDGDAMDNWGQGTSVTVSS VL: not shown			< 1 nM	< 5%		100%		
F846C.2H3 (antibody, V domains shown, also called 846.2H3) VH: QIQLVQSGPELKKPGETVKISCKASGYTFTNYGMNWVKQAPGKGLKWMGWINTYTGEPSYADDFKGRFAFSLETSASTAYLQINNLKNEDMATYFCARWGGYDGDYYAMDYWGQGTSVTVSS VL: NIMMTQSPSSLAVSAGEKVTMSCKSSQSVLYSSNQKNYLAWYQQKPGQSPKLLIYWASTRESGVPDRFTGSGSGTDFTLTISSVQPEDLAVYYCHQYLSSLTFGAGTKLELK	> 90%	> 90%			> 90%			
12G5.D7 (antibody, V domains shown) VH: QVQLKQSGAELVRPGASVKLSCKASGYTFTDYYINWVKQRPGQGLEWIARIYPGTGNTDYNEKFKGRATLTAEKSSSTAYMQLSSLTSEDSAVYFCARFAYYYGSGGYFDYWGHGTTLTVSS VL: DILMTQSPSSMSVSLGDTVSITCHASQGINSNMGWLQQKPGKSFKGLIYHATNLEDGVPSRFSGSGSGADYSLTISSLESEDFADYYCVQYAQFPPTFGSGTKLEIK	< 35%	< 30%	1.9 nM		< 10%	27%		≤ 30%
F846TC.14A2 (antibody, V domains shown, anti-Gal3 antibody; also called 846T.14A2) VH: QIQLVQSGPELKKPGETVKISCKASGYTFTNYGMNWVKQAPGKGLKWMGWINTYTGEPTYAGDLKGRFAFSLETSASTAYLQINNLKNEDTATYFCVRYTMDYWGQGTSVTVSS VL: QAVVTQESALTTSPGETVTLTCRSSTGAVTTSNYANWVQEKPDHLFTGLIGGINNRVPGVPARFSGSLIGDKAALTITGAQTEDEAIYFCALWYSNHWVFGGGTKLTVL	> 90%	> 90%			> 90%			
F847.14H4 (847.14H4) (antibody, V domains shown, anti-Gal3 antibody) VH: QIQLVQSGPELTKPGETVKISCKASGYTFTDYGMNWVRQAPGETLKWMGWINTYTGEPTYADDFKGRFAFSLESSASTAYLQINNLKNEDVATYFCARYPMDYWGQGTSVTVSS VL: QAVVTQESALTTSPGETVTLTCRSSTGAVTTSNYANWVQEKPDHLFTGLIGGTNNRAPGVPARFSGSLIGDKAALTITGAQTEDEAIYFCALWYSNHLVFGGGTKLTVL	< 35%	< 30%			< 10%			
14H10.2C9 (antibody, V domains shown) VH: QIQLVQSGPELKKPGETVKISCKASGYTFTTYGMGWVKQAPGKDLKWMGWINTYSGVPTYADDFKGRFAFSLETSASTAYLQISNLKNEDTATYFCSTPYEYDGAYWGQGTLVTVSA VL: not shown	> 90%	> 90%	0.562 nM	< 5%	> 90%	100%		
19D9.2E5 (antibody, V domains shown) VH: QIQLVQSGPELKKPGETVKISCKASGYTFTTYGMGWVKQAPGKGLKWMGWINTYSGVPTYADDFKGRFAFSLETSTSTAYLQINNLKNEDMATYFCATPYEYDGAYWGQGTLVTVSA VL: not shown			< 1 nM	< 5%		100%		
